Target: FLAG-tagged Rrn3 purified from infected Sf9 cells (not stated (human or mouse cDNA cloned)) (UniProt Q9NYV6)
Chain of UniProt Q9NYV6 (Q9NYV6 whole entry): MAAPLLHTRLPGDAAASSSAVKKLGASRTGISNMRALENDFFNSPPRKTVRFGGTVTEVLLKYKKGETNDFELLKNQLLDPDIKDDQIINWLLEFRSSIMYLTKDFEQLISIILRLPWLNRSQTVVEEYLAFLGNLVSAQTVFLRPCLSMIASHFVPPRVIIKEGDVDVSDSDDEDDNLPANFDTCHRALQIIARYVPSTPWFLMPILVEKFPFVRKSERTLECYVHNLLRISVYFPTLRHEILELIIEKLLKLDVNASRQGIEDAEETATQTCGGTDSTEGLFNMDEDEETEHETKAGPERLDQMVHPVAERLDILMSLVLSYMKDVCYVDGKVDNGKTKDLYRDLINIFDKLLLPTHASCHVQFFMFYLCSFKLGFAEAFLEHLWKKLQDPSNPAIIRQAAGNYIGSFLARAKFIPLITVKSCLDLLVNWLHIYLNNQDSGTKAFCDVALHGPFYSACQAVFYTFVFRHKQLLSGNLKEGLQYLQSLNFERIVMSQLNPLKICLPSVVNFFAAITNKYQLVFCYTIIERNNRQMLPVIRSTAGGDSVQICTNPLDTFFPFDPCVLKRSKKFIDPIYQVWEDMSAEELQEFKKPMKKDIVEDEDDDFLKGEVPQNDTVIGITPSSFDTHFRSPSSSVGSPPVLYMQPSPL

B1: TAT-22mer: HIV TAT based cell penetrating peptide coupled to the 22mer of rpa43 (peptide)
peptide: GGGRKKRRQRRRNKVSSSHIGCLVHGCFNASIPK
For B1, the labelling of the 47/45S pre-rRNA precursor in N1S1 cells treated with TAT-22mer was 70 % inhibition.

Source: publication PMC4233170
